Patent US20220396635A1 (UNIVERSIT T STUTTGART, published 2022)

Biological target: T1, FAP (UniProt Q12884 1-760, limits assumed)
T1 construct: whole, on cells; also called FAP on HT1080-FAP cells
Test: flow cytometry, serial dilution on HT1080-FAP cells (FAP-expressing), PE anti-human Fc detection
Procedure: Binding of trivalent, bispecific fusion proteins to FAP-expressing (HT1080-FAP) cell lines was analyzed by flow cytometry. 2×10⁵ cells/well were incubated with a serial dilution of trivalent, bispecific antibodies for 1 h at 4° C. followed by detection using a PE-conjugated anti-human Fc antibody (Jackson ImmunoResearch Laboratories Inc).

Row | EC50 | Binder
1 | 0.6 nM | scDb/scFv-Fc (1-2)+1, trivalent bispecific anti-FAPxanti-CD3 (bispecific antibody, The FAP site is hu36; also called scDbFAPxCD3-Fc(hole)Δab + scFvFAP-Fc(knob)Δab) chain 1: QVQLVQSGAEVKKPGASVKVSCKASGYTFTENIIHWVRQAPGQGLEWMGWFHPGSGSIKYNEKFKDRVTMTADTSTSTVYMELSSLRSEDTAVYYCARHGGTGRGAMDYWGQGTLVTVSSGGGGSDIQMTQSPSSLSASVGDRVTITCRASQDIRNYLNWYQQKPGKAPKLLIYYTSRLHSGVPSRFSGSGSGTDFTFTISSLQPEDIATYYCQQGNTLPWTFGQGTKLEIKRGGGGSGGGGSGGGGSQVQLVQSGAEVKKPGSSVKVSCKASGGTFSGYTMNWVRQAPGQGLEWMGLINPYKGVSTYNGKFKDRVTITADKSTSTAYMELSSLRSEDTAVYYCARSGYYGDSDWYFDVWGQGTLVTVSSGGGGSDIQMTQSPSSLSASVGDRVTITCRASKSVSTSAYSYMHWYQQKPGKAPKLLIYLASNLESGVPSRFSGSGSGTDFTLTISSLQPEDFATYYCQHSRELPYTFGQGTKLEIKRAAADKTHTCPPCPAPPVAGPSVFLFPPKPKDTLMISRTPEVTCVVVDVSHEDPEVKFNWYVDGVEVHNAKTKPREEQYNSTYRVVSVLTVLHQDWLNGKEYKCKVSNKGLPSSIEKTISKAKGQPREPQVCTLPPSRDELTKNQVSLSCAVKGFYPSDIAVEWESNGQPENNYKTTPPVLDSDGSFFLVSKLTVDKSRWQQGNVFSCSVMHEALHNHYTQKSLSLSPGK chain 2: QVQLVQSGAEVKKPGASVKVSCKASGYTFTENIIHWVRQAPGQGLEWMGWFHPGSGSIKYNEKFKDRVTMTADTSTSTVYMELSSLRSEDTAVYYCARHGGTGRGAMDYWGQGTLVTVSSGGGGSGGGGSGGGGSDIQMTQSPSSLSASVGDRVTITCRASKSVSTSAYSYMHWYQQKPGKAPKLLIYLASNLESGVPSRFSGSGSGTDFTLTISSLQPEDFATYYCQHSRELPYTFGQGTKLEIKRAAADKTHTCPPCPAPPVAGPSVFLFPPKPKDTLMISRTPEVTCVVVDVSHEDPEVKFNWYVDGVEVHNAKTKPREEQYNSTYRVVSVLTVLHQDWLNGKEYKCKVSNKGLPSSIEKTISKAKGQPREPQVYTLPPCRDELTKNQVSLWCLVKGFYPSDIAVEWESNGQPENNYKTTPPVLDSDGSFFLYSKLTVDKSRWQQGNVFSCSVMHEALHNHYTQKSLSLSPGK
2 | 0.5 nM | scDb/Fab-Fc (1-2)+1, trivalent bispecific anti-FAPxanti-CD3 (bispecific antibody, human IgG1, kappa, also called scDbFAPxCD3-Fc(hole)Δab + VHFAP-CH1-Fc(knob)Δab + VLFAP-CLκ) QVQLVQSGAEVKKPGASVKVSCKASGYTFTENIIHWVRQAPGQGLEWMGWFHPGSGSIKYNEKFKDRVTMTADTSTSTVYMELSSLRSEDTAVYYCARHGGTGRGAMDYWGQGTLVTVSSGGGGSDIQMTQSPSSLSASVGDRVTITCRASQDIRNYLNWYQQKPGKAPKLLIYYTSRLHSGVPSRFSGSGSGTDFTFTISSLQPEDIATYYCQQGNTLPWTFGQGTKLEIKRGGGGSGGGGSGGGGSQVQLVQSGAEVKKPGSSVKVSCKASGGTFSGYTMNWVRQAPGQGLEWMGLINPYKGVSTYNGKFKDRVTITADKSTSTAYMELSSLRSEDTAVYYCARSGYYGDSDWYFDVWGQGTLVTVSSGGGGSDIQMTQSPSSLSASVGDRVTITCRASKSVSTSAYSYMHWYQQKPGKAPKLLIYLASNLESGVPSRFSGSGSGTDFTLTISSLQPEDFATYYCQHSRELPYTFGQGTKLEIKRAAADKTHTCPPCPAPPVAGPSVFLFPPKPKDTLMISRTPEVTCVVVDVSHEDPEVKFNWYVDGVEVHNAKTKPREEQYNSTYRVVSVLTVLHQDWLNGKEYKCKVSNKGLPSSIEKTISKAKGQPREPQVCTLPPSRDELTKNQVSLSCAVKGFYPSDIAVEWESNGQPENNYKTTPPVLDSDGSFFLVSKLTVDKSRWQQGNVFSCSVMHEALHNHYTQKSLSLSPGK heavy: QVQLVQSGAEVKKPGASVKVSCKASGYTFTENIIHWVRQAPGQGLEWMGWFHPGSGSIKYNEKFKDRVTMTADTSTSTVYMELSSLRSEDTAVYYCARHGGTGRGAMDYWGQGTLVTVSSASTKGPSVFPLAPSSKSTSGGTAALGCLVKDYFPEPVTVSWNSGALTSGVHTFPAVLQSSGLYSLSSVVTVPSSSLGTQTYICNVNHKPSNTKVDKKVEPKSCDKTHTCPPCPAPPVAGPSVFLFPPKPKDTLMISRTPEVTCVVVDVSHEDPEVKFNWYVDGVEVHNAKTKPREEQYNSTYRVVSVLTVLHQDWLNGKEYKCKVSNKGLPSSIEKTISKAKGQPREPQVYTLPPCRDELTKNQVSLWCLVKGFYPSDIAVEWESNGQPENNYKTTPPVLDSDGSFFLYSKLTVDKSRWQQGNVFSCSVMHEALHNHYTQKSLSLSPGK light: DIQMTQSPSSLSASVGDRVTITCRASKSVSTSAYSYMHWYQQKPGKAPKLLIYLASNLESGVPSRFSGSGSGTDFTLTISSLQPEDFATYYCQHSRELPYTFGQGTKLEIKRRTVAAPSVFIFPPSDEQLKSGTASVVCLLNNFYPREAKVQWKVDNALQSGNSQESVTEQDSKDSTYSLSSTLTLSKADYEKHKVYACEVTHQGLSSPVTKSFNRGEC
